Results on three molecules are retold here after paper PMC7264852, “Structural and Hydrodynamic Characterization of Dimeric Human Oligoadenylate Synthetase 2” (Biophysical Journal, 2020).

In data set [1] the target is OAS2 (Homo sapiens) (UniProt P29728). To be noted: cited from earlier work.
Data set [2] concerns the target recombinant human OAS1 (2′-5′-oligoadenylate synthetase 1) (human) (UniProt P00973). The experiment in a line: SEC-SAXS; OAS1 loaded at 4.14 g/L (50 μL) on a Shodex KW404 column, Diamond Light Source B21; peak-1 and peak-2 analysed separately; Mw by SAXS MoW. Background: In gel filtration, larger molecules generally elute earlier.
The target is the same in data set [3]. The experiment in a line: AUC; sedimentation velocity, OAS1 at 2.0–3.5 g/L, 20°C, 25,000 rpm, 20 mM Tris pH 7.2, 100 mM NaCl, 1 mM DTT, 10% glycerol; monomer to dimer.
Data set [4] concerns the molecule itself. The data set can be described thus: SEC-SAXS; OAS2 loaded at 4.00 g/L (50 μL) on a Shodex KW404 column, Diamond Light Source B21; volume-based molecular weight from DAMMIN.

The term Kd denotes a measure of binding affinity in units of concentration. Regarding OAS2 (from UniProt P29728), the Kd in data set [1] was 5.1 nM.

As usually defined, the stoichiometry N is a count of units in the complex or per binding partner. For the molecule “recombinant human OAS1 (2′-5′-oligoadenylate synthetase 1) (from UniProt P00973 1-400) (enzyme)”, the stoichiometry N in data set [2] and in data set [3] was 2 each time.

B1: FLAG-tagged OAS2 (recombinant human 2′-5′-oligoadenylate synthetase 2, wild type) (enzyme, UniProt P29728-2 1-687, looked up)
chain: MGNGESQLSSVPAQKLGWFIQEYLKPYEECQTLIDEMVNTICDVLQEPEQFPLVQGVAIGGSYGRKTVLRGNSDGTLVLFFSDLKQFQDQKRSQRDILDKTGDKLKFCLFTKWLKNNFEIQKSLDGFTIQVFTKNQRISFEVLAAFNALSLNDNPSPWIYRELKRSLDKTNASPGEFAVCFTELQQKFFDNRPGKLKDLILLIKHWHQQCQKKIKDLPSLSPYALELLTVYAWEQGCRKDNFDIAEGVRTVLELIKCQEKLCIYWMVNYNFEDETIRNILLHQLQSARPVILDPVDPTNNVSGDKICWQWLKKEAQTWLTSPNLDNELPAPSWNVLPAPLFTTPGHLLDKFIKEFLQPNKCFLEQIDSAVNIIRTFLKENCFRQSTAKIQIVRGGSTAKGTALKTGSDADLVVFHNSLKSYTSQKNERHKIVKEIHEQLKAFWREKEEELEVSFEPPKWKAPRVLSFSLKSKVLNESVSFDVLPAFNALGQLSSGSTPSPEVYAGLIDLYKSSDLPGGEFSTCFTVLQRNFIRSRPTKLKDLIRLVKHWYKECERKLKPKGSLPPKYALELLTIYAWEQGSGVPDFDTAEGFRTVLELVTQYQQLCIFWKVNYNFEDETVRKFLLSQLQKTRPVILDPAEPTGDVGGGDRWCWHLLAKEAKEWLSSPCFKDGTGNPIPPWKVPVKVI
notes: human 2′-5′-oligoadenylate synthetase 2 (OAS2); residues D408, D410, D481, C668, F669, K670 are named; The N-terminal position of FLAG is stated only for the CAFAKA mutant; also called FLAG-OAS2; wild-type OAS2; source: HEK293T, transfected (pcDNA3); in lysate for the co-immunoprecipitation
B1: in data set [4], the “stoichiometry N” value came out at 2.
